Measured values reported in the supplement of paper PMC12338614.
± gives the uncertainty stated by the source.

B1: library; numbered along this chain (parent)
chain: MEVVDPQQLGMFTEGELMSVGMDTFIHRIDSTEVIYQPRRKRAKLIGKYLMGDLLGEGSYGKVKEVLDSETLCRRAVKILKKKKLRRIPNGEANVKKEIQLLRRLRHKNVIQLVDVLYNEEKQKMYMVMEYCVCGMQEMLDSVPEKRFPVCQAHGYFCQLIDGLEYLHSQGIVHKDIKPGNLLLTTGGTLKISDLGVAEALHPFAADDTCRTSQGSPAFQPPEIANGLDTFSGFKVDIWSAGVTLYNITTGLYPFEGDNIYKLFENIGKGSYAIPGDCGPPLSDLLKGMLEYEPAKRFSIRQIRQHSWFRKKHPPAEAPVPIPPSPDTKDRWRSMTVVPYLEDLHGADEDEDLFDIEDDIIYTQDFTVPGQVPEEEASHNGQRRGLPKAVCMNGTEAAQLSTKSRAEGRAPNPARKACSASSKIRRLSACKQQ

Variants of: B1
Experiment: STK11 functional score (HeLa growth suppression), rescaled enrichment; synonymous median = 1, nonsense median = 0 (normalised score)
Settings: with HeLa; variant type: missense
Outline: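 In HeLa, Bxb1 integrated POPCode codon-randomised libraries of codon-optimised STK11 at an AAVS1 landing pad; three regions were each transfected three times. Integrants, marked as BFP-negative and mCherry-positive, were FACS-sorted 4–5 days after electroporation and expanded for about two weeks before tiled gDNA amplicons were sequenced on NextSeq (~2 million reads per tile). Each functional score is a post/pre-selection log ratio corrected to wild type, rescaled to the synonymous and nonsense medians, and merged across codons and replicate transfections, with error estimated by bootstrapping.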

Variant | STK11 functional score
MEVVDPQQLGMFTEGELMSVGMDTFIHRIDSTEVIYQPRRKRAKLIGKYLMGDLLGEGSYGKVKEVLDSETLCRRAVKILKKKKLWRIPNGEANVKKEIQLLRRLRHKNVIQLVDVLYNEEKQKMYMVMEYCVCGMQEMLDSVPEKRFPVCQAHGYFCQLIDGLEYLHSQGIVHKDIKPGNLLLTTGGTLKISDLGVAEALHPFAADDTCRTSQGSPAFQPPEIANGLDTFSGFKVDIWSAGVTLYNITTGLYPFEGDNIYKLFENIGKGSYAIPGDCGPPLSDLLKGMLEYEPAKRFSIRQIRQHSWFRKKHPPAEAPVPIPPSPDTKDRWRSMTVVPYLEDLHGADEDEDLFDIEDDIIYTQDFTVPGQVPEEEASHNGQRRGLPKAVCMNGTEAAQLSTKSRAEGRAPNPARKACSASSKIRRLSACKQQ [R86W] | 0.178 ± 0.085
MEVVDPQQLGMFTEGELMSVGMDTFIHRIDSTEVIYQPRRKRAKLIGKYLMGDLLGEGSYGKVKEVLDSETLCRRCVKILKKKKLRRIPNGEANVKKEIQLLRRLRHKNVIQLVDVLYNEEKQKMYMVMEYCVCGMQEMLDSVPEKRFPVCQAHGYFCQLIDGLEYLHSQGIVHKDIKPGNLLLTTGGTLKISDLGVAEALHPFAADDTCRTSQGSPAFQPPEIANGLDTFSGFKVDIWSAGVTLYNITTGLYPFEGDNIYKLFENIGKGSYAIPGDCGPPLSDLLKGMLEYEPAKRFSIRQIRQHSWFRKKHPPAEAPVPIPPSPDTKDRWRSMTVVPYLEDLHGADEDEDLFDIEDDIIYTQDFTVPGQVPEEEASHNGQRRGLPKAVCMNGTEAAQLSTKSRAEGRAPNPARKACSASSKIRRLSACKQQ [A76C] | 1.32 ± 0.13
MEVVDPQQLGMFTEGELMSVGMDTFIHRIDSTEVIYQPRRKRAKLIGKYLMGDLLGEGSYGKVKEVLDSETLCRRAVKILKKKKLRRIPNGEANVKKEIQLLRRLRHKNVIQLVDVLYNEEKQKMYMVMEYCVCGMQEMLDSVPEKRFPVCQAHGYFCQLIDGLEYLHSQGIVHKDIKPGNLLLTTGGTLKISDLGVAEALHPFAADDTCRTSQGSPAFQPPEIANGLDTFSGFKVDIWSAGVTLYNITTGLYPFEGDNIYKLFENIGKGSYAIPGDCGPPLSDLLKGMLEYEPAKRFSIRQIRQHSWFRKKHPPAEAPVPIPPSPDTKDRWRSMTVVPYLEDLHGADEDEDLFDIEDDIIYTQDFTVPGQVPVEEASHNGQRRGLPKAVCMNGTEAAQLSTKSRAEGRAPNPARKACSASSKIRRLSACKQQ [E374V] | 0.836 ± 0.41
MEVVDPQQLGMFTEGELMSVGMDTFIHRIDSTEVIYQPRRKRAKLIGKYLMGDLLGEGSYGKVKEVLDSETLCRRAVKILKKKKLRRIPNGEANVKKEIQLLRRLRHKNVIQLVDVLYNEEKQKMYMVMEYCVCGMQEMLDSVPEKRFPVCQAHGYFCQLIDGLEYLHSQGIVHKDIKPGNLLLTTGGTLKISDLGVAEALHPFAADDTCRTSQGSPAFQPPEIANGLDTFSGFKVDIWSAGVTLYNITTGLYPFEGDNIYKLFENIGKGSYAIPGDCGPPLSDLLKGMLEYEPAKRFSIRQIRQHSWFRKKHPPAEAPVPIPPSPDTKDRWRSMTVVPYLEDLHGADEDEDLFDIEDDIIYTQDFTVPGQVPPEEASHNGQRRGLPKAVCMNGTEAAQLSTKSRAEGRAPNPARKACSASSKIRRLSACKQQ [E374P] | 1.42 ± 0.26
MEVVDPQQLGMFTEGELMSVGMDTFIHRIDSTEVIYQPRRKRAKLIGKYLMGDLLGEGSYGKVKEVLDSETLCRRAVKILKKKKLRRIPNGEANVKKEIQLLRRLRHKNVIQLVDVLYNEEKQKMYMVMEYCVCGMQEMLDSVPEKRFPVCQAHGYFCQLIDGLEYLHSQGIVHKDIKPGNLLLTTGGTLKISDLGVAEALHPFAADDTCRTSQGSPAFQPPEIANGLDTFSGFKVDIWSAGVTLYNITTGLYPFEGDNIYKLFENIGKGSYAIPGDCGPPLSDLLKGMLEYEPAKRFSIRQIRQHSWFRKKHPPAEAPVPIPPSPDTKDRWRSMTVVPYLEDLHGADEDEDLFDIEDDIIYTQDFTVPGQVPEEEASHNGQRRGLPKAVCMNGTEAAQLSTKSRAEGRAPNPARKACSASSEIRRLSACKQQ [K423E] | 1.62 ± 0.12
MEVVDPQQLGMFTEGELMSVGMDTFIHRIDSTEVIYQPRRKRAKLIGKYLMGDLLGEGSYGKVKEVLDSETLCRNAVKILKKKKLRRIPNGEANVKKEIQLLRRLRHKNVIQLVDVLYNEEKQKMYMVMEYCVCGMQEMLDSVPEKRFPVCQAHGYFCQLIDGLEYLHSQGIVHKDIKPGNLLLTTGGTLKISDLGVAEALHPFAADDTCRTSQGSPAFQPPEIANGLDTFSGFKVDIWSAGVTLYNITTGLYPFEGDNIYKLFENIGKGSYAIPGDCGPPLSDLLKGMLEYEPAKRFSIRQIRQHSWFRKKHPPAEAPVPIPPSPDTKDRWRSMTVVPYLEDLHGADEDEDLFDIEDDIIYTQDFTVPGQVPEEEASHNGQRRGLPKAVCMNGTEAAQLSTKSRAEGRAPNPARKACSASSKIRRLSACKQQ [R75N] | -0.061 ± 0.19
MEVVDPQQLGMFTEGELMSVGMDTFIHRIDSTEVIYQPRRKRAKLIGKYLMGDLLGEGSYGKVKEVLDSETLCRRAVKILKKKKLRRIPNGEANVKKEIQLLRRLRHKQVIQLVDVLYNEEKQKMYMVMEYCVCGMQEMLDSVPEKRFPVCQAHGYFCQLIDGLEYLHSQGIVHKDIKPGNLLLTTGGTLKISDLGVAEALHPFAADDTCRTSQGSPAFQPPEIANGLDTFSGFKVDIWSAGVTLYNITTGLYPFEGDNIYKLFENIGKGSYAIPGDCGPPLSDLLKGMLEYEPAKRFSIRQIRQHSWFRKKHPPAEAPVPIPPSPDTKDRWRSMTVVPYLEDLHGADEDEDLFDIEDDIIYTQDFTVPGQVPEEEASHNGQRRGLPKAVCMNGTEAAQLSTKSRAEGRAPNPARKACSASSKIRRLSACKQQ [N109Q] | 0.886 ± 0.081
